{
  "source": "patent US20150166643A1",
  "about": "(Alexion, published 2015)",
  "key": {"[1]": {"target": "T1, human factor B (purified, Complement Technology A135) (human, UniProt P00751 26-764)", "T1 sequence (P00751 26-764)": "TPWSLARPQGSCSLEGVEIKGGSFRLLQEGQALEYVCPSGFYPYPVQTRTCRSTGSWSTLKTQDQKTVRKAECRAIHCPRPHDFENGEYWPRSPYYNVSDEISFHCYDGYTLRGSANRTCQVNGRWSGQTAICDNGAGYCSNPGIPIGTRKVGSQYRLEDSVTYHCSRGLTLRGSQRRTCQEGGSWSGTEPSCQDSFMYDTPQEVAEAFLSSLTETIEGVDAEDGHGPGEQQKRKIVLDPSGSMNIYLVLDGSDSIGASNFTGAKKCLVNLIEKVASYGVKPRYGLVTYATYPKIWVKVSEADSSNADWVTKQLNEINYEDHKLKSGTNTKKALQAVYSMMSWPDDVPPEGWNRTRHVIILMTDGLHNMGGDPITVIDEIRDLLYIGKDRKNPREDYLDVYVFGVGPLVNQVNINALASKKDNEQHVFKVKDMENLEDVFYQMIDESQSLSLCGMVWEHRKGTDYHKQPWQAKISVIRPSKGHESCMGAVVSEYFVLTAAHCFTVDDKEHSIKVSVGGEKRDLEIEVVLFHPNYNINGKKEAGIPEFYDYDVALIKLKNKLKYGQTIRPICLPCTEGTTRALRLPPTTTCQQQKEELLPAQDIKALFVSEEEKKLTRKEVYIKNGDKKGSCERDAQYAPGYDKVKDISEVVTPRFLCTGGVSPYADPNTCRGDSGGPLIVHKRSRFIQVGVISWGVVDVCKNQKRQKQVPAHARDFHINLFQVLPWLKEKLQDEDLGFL", "assay": "cell-based or functional assay"}, "[2]": {"target": "T1, human factor B (purified, Complement …)", "assay": "BLI (Octet), binding to factor B (summary table)", "experimental": "(§1) Binding kinetics of TA106 and TA106 S33A Fab (CLS016) to Factor B were analyzed using a FortéBio® Octet® biosensor (FortéBio, Inc.) in a similar protocol as described previously. In one exemplary experiment, Factor B (Complement Technology) was biotinylated at a 1:10 ratio and coupled to a streptavidin biosensor at a concentration of 5 μg/mL for a loading time of 600 seconds. Biosensors were briefly dipped in 1×KB as a wash for 30 seconds. Associations with a titration series of Fab with a concentration range from 100 to 3 nM (diluted in 1×KB) were carried out for 600 seconds. Fabs were dissociated from the biosensor by immersing the biosensor in 1×KB during the 600 second dissociation phase. As depicted in FIGS. 19 and 20, both TA106 Fab and TA106-derivative S33A Fab (CLS016) bound to Factor B at various concentrations, resulting in nearly identical association and dissociation profiles. Kinetic assessments using partial local fit parameters yielded identical values for KD/kₐ/Kd at each concentration tested."}, "[3]": {"target": "T1, human factor B (purified, Complement …)", "assay": "SPR (Biacore 3000), Fab captured on chip, soluble human factor B 3.1-100 nM", "from_the_text": "(§2) Binding kinetics of TA106 Fab and variant S33A Fab (CLS016) were further characterized using Surface Plasmon Resonance (SPR) technology. In one exemplary experiment, both Fabs were captured on chips of a Biacore 3000 analyzer and samples of human factor B of different concentrations were flowed as the antigen over the surface to model soluble human factor B binding, using protocols recommended by the manufacturer and described previously in the instant disclosure. […] In another exemplary experiment, the affinities of both Fabs were also measured by reversing the orientation of the previous experiment. Specifically, human factor B was directly coupled to one flow cell of a CM5 chip. The second flow cell was used as a blank reference with no coupled ligand. CLS016 or TA106 Fab was then flowed on both flow cells. Concentrations between 0.19 to 25 nM were run with duplicates. The surface was regenerated between each cycle."}, "[4]": {"target": "T1, human factor B (purified, Complement …)", "assay": "BLI (Octet), biotinylated factor B on streptavidin biosensor, Fab at 25 nM", "experimental": "as §1"}, "[5]": {"target": "T1, human factor B (purified, Complement …)", "assay": "BLI (Octet), biotinylated factor B on streptavidin biosensor, Fab at 50 nM", "experimental": "as §1"}, "[6]": {"target": "T1, human factor B (purified, Complement …)", "assay": "BLI (Octet), biotinylated factor B on streptavidin biosensor, Fab at 100 nM", "experimental": "as §1"}, "[7]": {"target": "T1, human factor B (purified, Complement …)", "assay": "BLI (Octet), biotinylated factor B on streptavidin biosensor, Fab at 12.5 nM", "experimental": "as §1"}, "[8]": {"target": "T1, human factor B (purified, Complement …)", "assay": "BLI (Octet), biotinylated factor B on streptavidin biosensor, Fab at 3.13 nM", "experimental": "as §1"}, "[9]": {"target": "T1, human factor B (purified, Complement …)", "assay": "BLI (Octet), biotinylated factor B on streptavidin biosensor, Fab at 6.25 nM", "experimental": "as §1"}, "[10]": {"target": "T1, human factor B (purified, Complement …)", "assay": "SPR (Biacore), human factor B directly coupled to CM5 chip, Fab flowed at 0.19-25 nM", "from_the_text": "as §2"}, "[11]": {"target": "T1, human factor B (purified, Complement …)", "assay": "SPR (Biacore), factor B coupled to the chip, free TA106 Fab 0.19-25 nM flowed; Chi2 1.58", "from_the_text": "as §2"}, "[12]": {"target": "T1, human factor B (purified, Complement …)", "assay": "SPR (Biacore), TA106 Fab captured on anti-Fab surface, soluble factor B flowed; Chi2 0.113"}, "[13]": {"target": "T1, human factor B (purified, Complement …)", "assay": "SPR (Biacore), factor B coupled to the chip, free TA106 Fab 0.19-25 nM flowed; Chi2 1.58 (the text rounds to 1.2 nM)", "from_the_text": "as §2"}},
  "data": [
    {"binder": "TA106 Fab (humaneered anti-factor B Fab, expressed in E. coli) (Fab, V domains shown, Fab made in E. coli by Xoma, not glycosylated; also called Fab TA106; TA106 wild type Fab) VH: QVQLVQSGAEVKKPGASVKVSCKASGYSFTDYYMTWVRQAPGQGLEWMGWINPNSGGTKYAQKFQGRVTMTRDTSISTAYMELSRLRSDDTAVYYCARGYYANSAWFAYWGQGTLVTVSS VL: DIVMTQSPDSLAVSLGERATINCKSSQSLLNSSTSKNYLAWYQQKPGQPPKLLIYWASTRESGVPDRFSGSGSGTDFTLTISSLQAEDVAVYYCKQVYNLPWTFGQGTKLEIKR", "values": [
      {"measurement": "IC50 (read off the curve); lysis of rabbit red blood cells in 10% normal human serum", "setting": "[1]", "result": "~80", "unit": "nM"},
      {"measurement": "Kd", "setting": "[2]", "result": "20 to 30", "unit": "nM"},
      {"measurement": "Kd", "setting": "[3]", "result": "~30.6", "unit": "nM"},
      {"measurement": "Kd", "setting": "[4]", "result": 22.4, "unit": "nM"},
      {"measurement": "koff", "setting": "[4]", "result": 0.00352, "unit": "s⁻¹"},
      {"measurement": "kon", "setting": "[4]", "result": 157000, "unit": "M⁻¹ s⁻¹"},
      {"measurement": "Kd", "setting": "[5]", "result": 22.7, "unit": "nM"},
      {"measurement": "koff", "setting": "[5]", "result": 0.0039, "unit": "s⁻¹"},
      {"measurement": "kon", "setting": "[5]", "result": 172000, "unit": "M⁻¹ s⁻¹"},
      {"measurement": "Kd", "setting": "[6]", "result": 13, "unit": "nM"},
      {"measurement": "koff", "setting": "[6]", "result": 0.00405, "unit": "s⁻¹"},
      {"measurement": "kon", "setting": "[6]", "result": 312000, "unit": "M⁻¹ s⁻¹"},
      {"measurement": "Kd", "setting": "[7]", "result": 29.8, "unit": "nM"},
      {"measurement": "koff", "setting": "[7]", "result": 0.00324, "unit": "s⁻¹"},
      {"measurement": "kon", "setting": "[7]", "result": 109000, "unit": "M⁻¹ s⁻¹"},
      {"measurement": "Kd", "setting": "[8]", "result": 32.3, "unit": "nM"},
      {"measurement": "koff", "setting": "[8]", "result": 0.00239, "unit": "s⁻¹"},
      {"measurement": "kon", "setting": "[8]", "result": 74000, "unit": "M⁻¹ s⁻¹"},
      {"measurement": "Kd", "setting": "[9]", "result": 41.6, "unit": "nM"},
      {"measurement": "koff", "setting": "[9]", "result": 0.00294, "unit": "s⁻¹"},
      {"measurement": "kon", "setting": "[9]", "result": 70600, "unit": "M⁻¹ s⁻¹"},
      {"measurement": "Kd", "setting": "[10]", "result": "~1.2", "unit": "nM"},
      {"measurement": "koff", "setting": "[11]", "result": 0.00333, "unit": "s⁻¹"},
      {"measurement": "kon", "setting": "[11]", "result": "2.84e+06", "unit": "M⁻¹ s⁻¹"},
      {"measurement": "koff", "setting": "[12]", "result": 0.0036, "unit": "s⁻¹"},
      {"measurement": "kon", "setting": "[12]", "result": 118000, "unit": "M⁻¹ s⁻¹"},
      {"measurement": "Kd", "setting": "[13]", "result": 1.17, "unit": "nM"}
    ]}
  ]
}
